Here are results for 1 molecule from patent US20250346679A1 (INVOX PHARMA, published 2025).

For test [1], the target named is human CD137, cell-surface (human, UniProt Q07011 24-255). Put plainly: cell-based or functional assay.
Test [2] addresses T1, cynomolgus CD137, cell-surface (cynomolgus, UniProt Q07011 24-255 (human entry)).
T1 construct: also called DO11.10.cCD137; CD137 on cynomolgus T cells
T1 chain: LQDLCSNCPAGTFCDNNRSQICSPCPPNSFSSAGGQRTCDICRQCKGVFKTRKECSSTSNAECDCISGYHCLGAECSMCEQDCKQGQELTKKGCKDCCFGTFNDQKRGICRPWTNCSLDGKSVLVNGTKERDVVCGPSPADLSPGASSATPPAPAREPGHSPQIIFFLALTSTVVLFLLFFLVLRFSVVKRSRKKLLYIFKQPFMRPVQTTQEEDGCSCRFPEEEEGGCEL
The test can be described thus: flow cytometry on DO11.10.cCD137. As to the method:
Non-specific binding was also assessed by testing binding to DO11.10 cells lacking CD137 expression.
Briefly, DO11.10, DO11.10.hCD137 or DO11.10.cCD137 suspensions were prepared in FACS buffer (DPBS containing (Gibco, 14190-094) containing 0.5% BSA (Sigma, A7906)) and seeded at 1×10⁵ cell/well in 100 μl in round bottomed 96-well plates (VWR, 734-1797). […] The washed cells were resuspended in the diluted antibody mixture, incubated at 4° C. for 30 minutes, and then washed once in FACS buffer. […] Dead cells were excluded and the fluorescence in the APC channel (638 nm 660/20) was measured. The geometric mean fluorescence intensity (GMFI) values were plotted vs the log concentration of antibody and the resulting curves were fitted using the log (agonist) vs response equation in GraphPad Prism.
(In flow cytometry, cells or beads pass a laser one at a time.)

The next test addresses T2, hPD-L1-His-Avi (human).
T2 construct: also called human PD-L1-His Avi; Human PD-L1 His
Put plainly: SPR, mAb^2 captured on immobilised human PD-L1 His, then hCD137-mFc-Avi (100 nM) in flow. On the technique in general: Surface plasmon resonance follows binding to a sensor surface in real time, without labels.

The target in test [3] is T3, human PD-L1, cell-surface (human, UniProt Q9NZQ7 19-290).
T3 construct: also called HEK.hPD-L1; PD-L1 on MDA-MB-231, on Promega PD-L1 cells, on primary human cells
T3 sequence (Q9NZQ7 19-290): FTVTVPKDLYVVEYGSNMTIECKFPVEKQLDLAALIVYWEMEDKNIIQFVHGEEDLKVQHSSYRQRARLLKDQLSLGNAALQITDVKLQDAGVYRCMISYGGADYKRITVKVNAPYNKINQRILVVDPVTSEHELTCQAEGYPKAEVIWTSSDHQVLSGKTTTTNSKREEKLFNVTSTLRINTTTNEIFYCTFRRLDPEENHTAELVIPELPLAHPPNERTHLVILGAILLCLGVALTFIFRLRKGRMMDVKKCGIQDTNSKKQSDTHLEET
Put plainly: flow cytometry on activated primary human CD8+ T cells (carry PD-L1 and CD137); activated primary human CD8+ T cells (carry PD-L1 and little CD137). As to the method:
CD137 is rapidly expressed to high levels on activated CD8⁺ T cells and also on activated CD4⁺ T cells with lower levels (Xue-Zhong Yu et al, 2013), therefore Pan T cells were stimulated for 24 hours using Dynabeads™ Human T-Activator CD3/CD28 beads (Thermo, 11132D) according to manufacturer's instructions.
Dead cells were excluded and the fluorescence in the APC channel (638 nm 660/20) was measured to show test antibody binding. The geometric Mean Fluorescence Intensity (GMFI) values were plotted vs the log concentration of antibody and the resulting curves were fitted using the log (agonist) vs response equation in GraphPad Prism.

One may read the EC50 as the midpoint of the concentration-response curve. A lower EC50 goes with greater potency.

T2 sequence (chain, as listed by the source limits assumed): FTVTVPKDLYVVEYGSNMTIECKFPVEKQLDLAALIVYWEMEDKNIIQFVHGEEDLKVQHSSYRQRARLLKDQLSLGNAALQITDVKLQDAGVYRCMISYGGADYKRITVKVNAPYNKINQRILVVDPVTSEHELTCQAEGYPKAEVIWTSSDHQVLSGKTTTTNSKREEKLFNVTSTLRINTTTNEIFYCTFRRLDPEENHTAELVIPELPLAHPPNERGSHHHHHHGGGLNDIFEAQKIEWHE
Description for hPD-L1-His-Avi: One flow cell was activated and deactivated without any protein immobilised for background subtraction. The antibodies, diluted to 5 μg/ml in HBS-EP buffer, were captured at a flow rate of 30 μl/min to achieve a density of about 200-300 RU. Binding of human CD137-mFc-Avi was tested at 0 and 100 nM for 5 min at 30 μl/min, followed by a dissociation step of 2.5 min. The sensor chip was regenerated after each cycle with 20 mM NaOH for 60 seconds at a flow rate of 30 μl/min.

B1: FS22-172-003-AA/E12v2 (bispecific antibody, human IgG1, kappa, L234A L235A)
heavy: EVQLVQSGAEVKRPGASVKVSCKASGYPFTSYGISWVRQAPGQGLEWMGWISAYSGGTNYAQKLQGRVTMTTDTSTSTAYMELRSLRSDDTAVYYCARDLFPTIFGVSYYYYWGQGTLVTVSSASTKGPSVFPLAPSSKSTSGGTAALGCLVKDYFPEPVTVSWNSGALTSGVHTFPAVLQSSGLYSLSSVVTVPSSSLGTQTYICNVNHKPSNTKVDKKVEPKSCDKTHTCPPCPAPEAAGGPSVFLFPPKPKDTLMISRTPEVTCVVVDVSHEDPEVKFNWYVDGVEVHNAKTKPREEQYNSTYRVVSVLTVLHQDWLNGKEYKCKVSNKALPAPIEKTISKAKGQPREPQVYTLPPSRDELPYIIPPYNQVSLTCLVKGFYPSDIAVEWESNGQPENNYKTTPPVLDSDGSFFLYSKLTVGADRWLEGNVFSCSVMHEALHNHYTQKSLSLSPG
light: DIQMTQSPSTLSASVRDRVIITCRASQSIGNRLAWYQHKPGKAPKLLIYEASTSETGVPSRFSGSGSGTDFTLTISSLQPEDFATYYCQQSYSTPYTFGQGTKLEIKRTVAAPSVFIFPPSDEQLKSGTASVVCLLNNFYPREAKVQWKVDNALQSGNSQESVTEQDSKDSTYSLSSTLTLSKADYEKHKVYACEVTHQGLSSPVTKSFNRGEC
notes: PD-L1 site in the Fab, CD137 site in the CH3, LALA; also called anti-human CD137/PD-L1 mAb^2
As to B1, in test [1], the “EC50 (nM), IFN-γ release, CEFT antigen recall assay (CD4+ T cell activation)” value came to 0.08 nM. For the same molecule, the half-maximal effective concentration (EC50) came out at 7.39 nM in test [2] and 0.9 nM in test [3]. In addition, the binding result in the test with hPD-L1-His-Avi is “binds”.
